Source: publication PMC10232262

Molecular target: TRPA1 tagged with V5 and 6x histidine in the C terminus (UniProt Q8BLA8)
Experiment: pull-down; nickel bead (Ni-NTA) pull-down of TRPA1-V5-His from HEK293 cells; IQGAP1 detected with anti-IQGAP1; cells untreated or treated with AITC (400 uM), AITC with HC-030031 (10 uM), AITC in Ca2+-free solution, or forskolin

UniProt Q8BLA8, sequence (Q8BLA8 whole entry): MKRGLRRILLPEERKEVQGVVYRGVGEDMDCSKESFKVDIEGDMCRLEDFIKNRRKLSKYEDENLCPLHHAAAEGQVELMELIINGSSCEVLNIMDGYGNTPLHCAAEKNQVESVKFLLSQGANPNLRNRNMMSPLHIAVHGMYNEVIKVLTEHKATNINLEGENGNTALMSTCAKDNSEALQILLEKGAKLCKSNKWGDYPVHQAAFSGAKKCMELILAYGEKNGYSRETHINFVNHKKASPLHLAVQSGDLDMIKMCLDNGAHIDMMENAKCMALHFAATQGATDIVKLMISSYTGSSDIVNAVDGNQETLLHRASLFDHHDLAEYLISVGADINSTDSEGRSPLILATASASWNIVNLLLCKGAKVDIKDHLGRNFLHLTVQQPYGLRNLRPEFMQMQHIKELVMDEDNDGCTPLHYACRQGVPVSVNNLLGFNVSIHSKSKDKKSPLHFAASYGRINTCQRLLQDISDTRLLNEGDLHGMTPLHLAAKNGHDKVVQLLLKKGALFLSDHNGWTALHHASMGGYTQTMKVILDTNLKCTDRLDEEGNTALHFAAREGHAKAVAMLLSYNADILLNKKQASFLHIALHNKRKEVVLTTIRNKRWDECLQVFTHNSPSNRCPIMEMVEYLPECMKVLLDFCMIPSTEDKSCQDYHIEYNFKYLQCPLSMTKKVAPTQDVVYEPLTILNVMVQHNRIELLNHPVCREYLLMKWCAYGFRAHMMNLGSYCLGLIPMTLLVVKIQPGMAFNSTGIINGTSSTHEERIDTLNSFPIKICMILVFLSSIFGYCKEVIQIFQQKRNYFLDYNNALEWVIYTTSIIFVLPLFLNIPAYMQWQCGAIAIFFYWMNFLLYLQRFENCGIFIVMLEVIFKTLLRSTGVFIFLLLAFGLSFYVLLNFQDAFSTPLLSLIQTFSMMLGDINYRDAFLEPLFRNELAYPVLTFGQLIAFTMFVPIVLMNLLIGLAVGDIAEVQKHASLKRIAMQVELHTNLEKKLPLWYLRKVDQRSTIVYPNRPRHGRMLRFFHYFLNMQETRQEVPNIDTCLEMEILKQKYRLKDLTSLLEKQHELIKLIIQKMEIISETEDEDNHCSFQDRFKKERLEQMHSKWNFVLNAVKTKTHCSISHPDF

| Substance | relative band density (basal, against wild-type IQGAP1 basal = 1.0) (relative to the first band) |
| --- | --- |
| Cdc42 binding region (M1054-K1077) deleted IQGAP1 (from UniProt P46940 1-1657) (natural protein) | 0.53 |
| IQ motif (L700-Q905) deleted IQGAP1 (from UniProt P46940 1-1657) (natural protein) | 1.61 |
